These results are taken from patent publication US20180118786A1, “NOVEL lNHIBITORS OF THE ENZYME ACTIVATED FACTOR XII (FXIIA)” (ECOLE POLYTECHNIQUE FEDERALE DE LAUSANNE (EPFL), priority 2015, published 2018).

For test [1], the target named is FXIIa. The settings on record: cited from earlier work.
Test [2] relates to intrinsic pathway (contact activation). Briefly: Thrombin generation assay by CAT triggered by ellagic acid. The settings on record: ellagic acid trigger, 100 μg/mL. The format is biochemical, human. As to the method: (§1) Thrombin generation was performed as previously described with some modifications.30 In brief, 60 μL platelet poor plasma (PPP), 20 μL FXIIa inhibitor/HA buffer (Hepes 20 mM, NaCl 140 mM, pH 7.4, 5 mg/mL BSA), and 20 μL PPP reagent, PPP LOW reagent, MP reagent or Actin FS (1:170 diluted in HA buffer) were mixed in a 96-well microtiter plate (Immulon 2HB; Thermo Fisher Scientific) and incubated for 15 min at 37° C. Thrombin generation was triggered by the addition of 20 μL of substrate/calcium chloride buffer (FLUKA) at 37° C. Samples were tested in triplicate for each condition. Fluorogenic thrombin substrate hydrolysis was measured every 20 s for 120 min on a microplate fluorometer (Fluoroskan Ascent FL; Thermo Fisher Scientific) with a 390/460-nm (excitation/emission) filter set. Data analysis was performed on the Thrombinoscope software (Synapse By). PPP reagent (TF […], PL 4 μM), PPP LOW reagent (TF […], PL 4 μM), MP reagent (PL 4 μM), thrombin calibrator and FLUKA were purchased from Synapse By.

Test [3] deals with intrinsic pathway of coagulation. Briefly: aPTT in human plasma (Example 1). Format: biochemical. The note with it: citrated platelet poor plasma, 100 μg/mL inhibitor. How it is done: aPTT, PT and FXII coagulant activity (FXII:c) measurements Coagulation times (aPTT, PT) and FXIIa activity were determined in human plasma using an automated blood coagulation analyzer (Sysmex CS-5100, Siemens, Eschborn, Germany) with according to the manufacturer's instructions (Siemens). Extrinsic coagulation was triggered with Innovin® (recombinant human tissue factor, synthetic phospholipids and calcium in stabilized HEPES buffer system; Dade Behring/Simens). Intrinsic coagulation was triggered with Pathromtin* SL (Siemens). Human plasma used in this study was derived from a pool of fresh frozen plasma units provided by the Service Regional Vaudois de Transfusion Sanguine, Switzerland.
Coagulation times (aPTT, PT) and FXIIa activity were determined, at least in duplicate, in human plasma using an automated blood coagulation analyzer (Sysmex CA-7000) with standard reagents according to the manufacturer's instructions (Siemens Healthcare, Eschborn, Germany). Human plasma used in this study was derived from a pool of fresh frozen plasma units provided by the Service Regional Vaudois de Transfusion Sanguine, Switzerland.

Test [4] relates to thrombin generation in platelet poor plasma. Briefly: Thrombin generation assay by CAT, TF-triggered or without trigger. The format is biochemical, human. Also noted: lag time: unit not given here. The settings on record: 100 μg/mL inhibitor. How it is done:
as §1
Venous blood was collected from healthy volunteers by antecubital venipuncture with 19-gauge needles in 3,2% (w/v) citrated Monovette plastic tubes. In order to minimize contact activation, the first collection tube containing EDTA was discarded according to standard procedures. […] Blood was then processed to PPP by an initial centrifugation step at 2,000 g for 5 min followed by a second centrifugation step at 10,000 g for 10 min. Plasma aliquots were stored at −80 until analysis.

Test [5] shares this test system. The test is described as above. Format: biochemical, human. The settings on record: 1 pM TF, 100 μg/mL inhibitor.
Test [6] addresses trypsin (Homo sapiens, UniProt P07477). Briefly: Specificity FXII618 vs CTI, trypsin. Format: biochemical. The note with it: at a concentration as low as 20 nM.
Where [7] appears, read: absence of extrinsic- or intrinsic-specific trigger.

Sequence of FXIIa (P00748 373-615 limits assumed, other chains not shown): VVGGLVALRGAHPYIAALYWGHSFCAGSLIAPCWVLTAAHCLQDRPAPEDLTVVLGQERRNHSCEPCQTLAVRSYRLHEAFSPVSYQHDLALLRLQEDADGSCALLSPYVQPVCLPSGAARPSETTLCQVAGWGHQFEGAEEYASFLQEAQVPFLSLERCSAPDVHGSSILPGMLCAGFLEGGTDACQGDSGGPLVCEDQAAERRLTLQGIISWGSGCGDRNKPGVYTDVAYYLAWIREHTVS

B1: CTI: 13.6 kDa protein isolated from corn seeds inhibiting FXIIa (protein)
chain: SAGTSCVPGWAIPHNPLPSCRWYVTSRTCGIGPRLPWPELKRRCCRELADIPAYCRCTALSILMDGAIPPGPDAQLEGRLEDLPGCPREVQRGFAATLVTEAECNLATISGVAECPWILGGGTMPSK
As for B1, the Ki in test [1] was 24 nM. In addition, in test [2], the “reduction of ETP” value is on record as approximately 90% and the reduction of peak was more than 96%. Also, in test [3], the aPTT turned out to be 65.4 ± 0.5 s. This molecule registered a lag time in test [4] (0.25 pM TF) of 8.0±0.2. In test [4] (setting [7]), the lag time was 38.7±1.9 and the peak was 78.0±6.8. The “effect on thrombin generation” value in test [5] is on record as “no significant effect”. Besides, the “inhibition of trypsin activity” value in test [6] was “significantly inhibits”.

What is called Ki is the equilibrium dissociation constant of an inhibitor or competing ligand from its target.
